Assay results as given in patent US20250011363A1, “OPTIMIZED SHORTENED PEPTIDE THAT BINDS TO ACETYLCHOLINE RECEPTOR, AND USE THEREOF” (SKINMED CO., LTD., priority 2021, published 2025).

B1: KRRGVRR (peptide)
peptide: KRRGVRR
B2: RRGVRRW (peptide)
peptide: RRGVRRW
B3: RRGVRRI (peptide)
peptide: RRGVRRI
B4: HRRGVRR (peptide)
peptide: HRRGVRR
B5: FRRGVRR (peptide)
peptide: FRRGVRR
B6: RRGVRRK (peptide)
peptide: RRGVRRK
B7: DRRGVRR (peptide)
peptide: DRRGVRR
B8: TRRGVRR (peptide)
peptide: TRRGVRR
B9: RRGVRRT (peptide)
peptide: RRGVRRT
B10: YRRGVRR (peptide)
peptide: YRRGVRR
B11: RRGVRRF (peptide)
peptide: RRGVRRF
B12: RRGVRRM (peptide)
peptide: RRGVRRM
B13: RRGVRRY (peptide)
peptide: RRGVRRY
B14: ERRGVRR (peptide)
peptide: ERRGVRR
B15: RRGVRRH (peptide)
peptide: RRGVRRH
B16: NRRGVRR (peptide)
peptide: NRRGVRR
B17: RRGVRRS (peptide)
peptide: RRGVRRS
B18: IRRGVRR (peptide)
peptide: IRRGVRR
B19: RRGVRRN (peptide)
peptide: RRGVRRN
B20: RRGVRRD (peptide)
peptide: RRGVRRD
B21: SRRGVRR (peptide)
peptide: SRRGVRR
B22: WRRGVRR (peptide)
peptide: WRRGVRR
B23: RRGVRRQ (peptide)
peptide: RRGVRRQ
B24: 5mer-73 (peptide)
peptide: RRQRR
B25: 6mer-2-136 (peptide)
peptide: RWRYKR
B26: 5mer-ND (peptide)
peptide: KSLLR
B27: 5mer-311 (peptide)
peptide: RSYSR
B28: RRRGVRR (peptide)
peptide: RRRGVRR
B29: RRGVRRL (peptide)
peptide: RRGVRRL
B30: RRGVRRR (peptide)
peptide: RRGVRRR
B31: Spep 6mer (peptide)
peptide: RKSLLR
B32: 6mer-1-210 (peptide)
peptide: RRGVRR
B33: MRRGVRR (peptide)
peptide: MRRGVRR
B34: RRGVRRE (peptide)
peptide: RRGVRRE
B35: QRRGVRR (peptide)
peptide: QRRGVRR
B36: 6mer-2-77 (peptide)
peptide: KQQTRR
B37: 6mer-2-82 (peptide)
peptide: RGVQKK
B38: 6mer-2-86 (peptide)
peptide: KQFRRK
B39: 6mer-2-81 (peptide)
peptide: RRVSRR
B40: 6mer-2-83 (peptide)
peptide: KQYQRR
B41: 6mer-2-85 (peptide)
peptide: KSQYKR
B42: 6mer-2-98 (peptide)
peptide: RRQQRR
B43: 6mer-2-72 (peptide)
peptide: KRIQKK
B44: 6mer-2-78 (peptide)
peptide: KRYLKR
B45: 6mer-1-1199 (peptide)
peptide: KKTNKR
B46: 6mer-2-91 (peptide)
peptide: KWIYKR
B47: 6mer-2-79 (peptide)
peptide: RQLSKR
B48: 6mer-1-1200 (peptide)
peptide: RKACEK
B49: 6mer-2-70 (peptide)
peptide: KRLLRK
B50: 6mer-2-88 (peptide)
peptide: KSFQRR
B51: 6mer-2-95 (peptide)
peptide: RRIYRK
B52: 6mer-2-87 (peptide)
peptide: RRLTKR
B53: 6mer-2-71 (peptide)
peptide: KQVYKR
B54: 6mer-2-89 (peptide)
peptide: KSRSKK
B55: 6mer-2-84 (peptide)
peptide: KQRYKK
B56: 6mer-2-90 (peptide)
peptide: KGRTKR
B57: 6mer-2-76 (peptide)
peptide: RRQSRK
B58: 6mer-2-69 (peptide)
peptide: KWFLRK
B59: 6mer-2-80 (peptide)
peptide: RRQYKR
B60: 6mer-2-74 (peptide)
peptide: RWIYKR
B61: 6mer-2-73 (peptide)
peptide: RLYTKR
B62: 6mer-2-100 (peptide)
peptide: RRRCRR
B63: 6mer-1-1198 (peptide)
peptide: RRATER
B64: 6mer-2-92 (peptide)
peptide: KVVCKR
B65: 6mer-2-96 (peptide)
peptide: KWRQRK
B66: 6mer-2-97 (peptide)
peptide: RQFYRK
B67: 6mer-2-93 (peptide)
peptide: RWQTRR
B68: 6mer-2-99 (peptide)
peptide: RQRSRR
B69: 6mer-2-75 (peptide)
peptide: KLYTRK
B70: 6mer-2-94 (peptide)
peptide: RLYQRK

Each binder was assayed against acetylcholine receptor (assay: SPR, AchR immobilized on chip).
B1 showed a Binding affinity (relative to RRGVRR) (value relative to the RRGVRR sequence) of 169.
Work on B2 yielded a Binding affinity (relative to RRGVRR) (value relative to the RRGVRR sequence) of 134.
With B3 the Binding affinity (relative to RRGVRR) (value relative to the RRGVRR sequence) was 138.
Work on B4 yielded a Binding affinity (relative to RRGVRR) (value relative to the RRGVRR sequence) of 160.
Binder B5 has a Binding affinity (relative to RRGVRR) (value relative to the RRGVRR sequence) of 139.
B6 was tested, and the Binding affinity (relative to RRGVRR) (value relative to the RRGVRR sequence) was 171.
Work on B7 yielded a Binding affinity (relative to RRGVRR) (value relative to the RRGVRR sequence) of 159.
For B8, the Binding affinity (relative to RRGVRR) (value relative to the RRGVRR sequence) was 105.
B9 showed a Binding affinity (relative to RRGVRR) (value relative to the RRGVRR sequence) of 113.
B10 gave a Binding affinity (relative to RRGVRR) (value relative to the RRGVRR sequence) of 145.
B11 gave a Binding affinity (relative to RRGVRR) (value relative to the RRGVRR sequence) of 137.
For B12, the Binding affinity (relative to RRGVRR) (value relative to the RRGVRR sequence) was 127.
In the case of B13, the Binding affinity (relative to RRGVRR) (value relative to the RRGVRR sequence) is reported as 101.
Work on B14 yielded a Binding affinity (relative to RRGVRR) (value relative to the RRGVRR sequence) of 43.
Work on B15 yielded a Binding affinity (relative to RRGVRR) (value relative to the RRGVRR sequence) of 154.
B16 showed a Binding affinity (relative to RRGVRR) (value relative to the RRGVRR sequence) of 109.
B17 was tested, and the Binding affinity (relative to RRGVRR) (value relative to the RRGVRR sequence) was 118.
In the case of B18, the Binding affinity (relative to RRGVRR) (value relative to the RRGVRR sequence) is reported as 126.
Binder B19 has a Binding affinity (relative to RRGVRR) (value relative to the RRGVRR sequence) of 105.
B20 gave a Binding affinity (relative to RRGVRR) (value relative to the RRGVRR sequence) of 61.
With B21 the Binding affinity (relative to RRGVRR) (value relative to the RRGVRR sequence) was 117.
Binder B22 has a Binding affinity (relative to RRGVRR) (value relative to the RRGVRR sequence) of 134.
Work on B23 yielded a Binding affinity (relative to RRGVRR) (value relative to the RRGVRR sequence) of 105.
B24 was tested, and the Binding affinity (RU) was 179 RU.
Binder B25 has a Binding affinity (RU) of 194 RU.
B26 was tested, and the Binding affinity (RU) was 23 RU.
With B27 the Binding affinity (RU) was 167 RU.
B28 showed a Binding affinity (relative to RRGVRR) (value relative to the RRGVRR sequence) of 185.
Binder B29 has a Binding affinity (relative to RRGVRR) (value relative to the RRGVRR sequence) of 146.
B30 was tested, and the Binding affinity (relative to RRGVRR) (value relative to the RRGVRR sequence) was 188.
Binder B31 has a Binding affinity (RU) of 35 RU.
B32 gave a Binding affinity (RU) of 184 RU.
For B33, the Binding affinity (relative to RRGVRR) (value relative to the RRGVRR sequence) was 124.
With B34 the Binding affinity (relative to RRGVRR) (value relative to the RRGVRR sequence) was 33.
Binder B35 has a Binding affinity (relative to RRGVRR) (value relative to the RRGVRR sequence) of 101.

What follows are binders tested against acetylcholine receptor (assay: SPR, AchR on chip, peptide 10 uM).
For B27, the Binding affinity (RU) was 167 RU.

What follows are binders tested against acetylcholine receptor (assay: SPR, receptor immobilized, peptide 10 uM).
With B25 the Binding affinity was 194 RU.

The binders below were run against acetylcholine receptor (assay: SPR, AchR immobilised on chip, peptide 10 uM).
In the case of B32, the Binding affinity (RU) is reported as 184 RU.

What follows are binders tested against acetylcholine receptor (assay: SPR, peptide at 10 µM on acetylcholine receptor).
In the case of B24, the Binding affinity (RU) is reported as 179 RU.

These binders were tested against acetylcholine receptor (assay: SPR, peptide at 10 uM over immobilized acetylcholine receptor).
With B36 the Binding affinity (RU) was 123 RU.
B37 gave a Binding affinity (RU) of 124 RU.
Work on B38 yielded a Binding affinity (RU) of 126 RU.
Binder B39 has a Binding affinity (RU) of 121 RU.
B40 gave a Binding affinity (RU) of 135 RU.
Binder B41 has a Binding affinity (RU) of 137 RU.
B42 showed a Binding affinity (RU) of 148 RU.
B43 showed a Binding affinity (RU) of 144 RU.
With B44 the Binding affinity (RU) was 135 RU.
B45 was tested, and the Binding affinity (RU) was 39 RU.
B46 was tested, and the Binding affinity (RU) was 121 RU.
B47 gave a Binding affinity (RU) of 135 RU.
B48 was tested, and the Binding affinity (RU) was 21 RU.
In the case of B49, the Binding affinity (RU) is reported as 126 RU.
With B50 the Binding affinity (RU) was 141 RU.
B51 showed a Binding affinity (RU) of 142 RU.
Binder B52 has a Binding affinity (RU) of 142 RU.
In the case of B53, the Binding affinity (RU) is reported as 141 RU.
B54 was tested, and the Binding affinity (RU) was 141 RU.
B55 showed a Binding affinity (RU) of 139 RU.
In the case of B56, the Binding affinity (RU) is reported as 133 RU.
For B57, the Binding affinity (RU) was 142 RU.
B58 was tested, and the Binding affinity (RU) was 139 RU.
With B59 the Binding affinity (RU) was 148 RU.
B60 showed a Binding affinity (RU) of 136 RU.
B61 was tested, and the Binding affinity (RU) was 139 RU.
B62 was tested, and the Binding affinity (RU) was 142 RU.
For B63, the Binding affinity (RU) was 28 RU.
Work on B64 yielded a Binding affinity (RU) of 131 RU.
For B65, the Binding affinity (RU) was 154 RU.
Binder B66 has a Binding affinity (RU) of 154 RU.
B67 was tested, and the Binding affinity (RU) was 133 RU.
Binder B68 has a Binding affinity (RU) of 151 RU.
Work on B69 yielded a Binding affinity (RU) of 133 RU.
B70 was tested, and the Binding affinity (RU) was 126 RU.
